± gives the uncertainty stated by the source.
Test: self-splicing fitness, log relative to wild type (ln ratio); higher = more splicing; Tetrahymena group I intron in knt gene, E. coli kanamycin selection, DiMSum; sequences stand for … in CUCUCU…GGAGGGAAAAGUUAUCAGGCAUGCACCUGGUAGCUAGUCUUUAAACCAAUAGAUUGCAUCGGUUUAAAAGGCAAGACCGUCAAAUUGCGGGAAAGGGGUCAACAGCCGUUCAGUACCAAGUCUCAGGGGAAACUUUGAGAUGGCCUUGCAAAGGGUAUGGUAAUAAGCUGACGGACAUGGUCCUAACCACGCAGCCAAGUCCUAAGUCAACAGAUCUUCUGUUGAUAUGGAUGCAGUUCACAGACUAAAUGUCGGUCGGGGAAGAUGUAUUCUUCUCAUAAGAUAUAGUCGGACCUCUCCUUAAUGGGAGCUAGCGGAUGAAGUGAUGCAACACUGGAGCCGCUGGGAACUAAUUUGUAUGCGAAAGUAUAUUGAUUAGUUUUGGAGUACUCGUGGUCG
Outline: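 Pooled colonies went to amplicon sequencing on an Illumina HiSeq 2500 after six replicate transformations. The plates were LB agar with 100 μg/mL carbenicillin, 50 μM IPTG and 0.2% rhamnose, with or without 25 μg/mL kanamycin, incubated overnight at 37°C or 30°C. The E. coli BL21(DE3) library had all eight P1ex-region intron nucleotides randomised, the intron placed in the knt kanamycin-resistance gene on pET-22b(+). DiMSum fitness is the error-weighted combination of replicate fold changes, kanamycin against none, normalised to wild type.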

Sequence | self-splicing fitness (ln) (30 °C) | self-splicing fitness (ln) (37 °C)
UGUAAGCAAUAUUACGGGAU | -3.28 ± 0.32 | -2.46 ± 0.29
UCUAAGCAAUAUUACGUGUG | -1.02 ± 0.075 | -0.603 ± 0.1
ACAGAGCAAUAUUACGGGGA | -4.66 ± 0.34 | -3.55 ± 0.25
UGGUAGCAAUAUUACGAUUG | -0.422 ± 0.05 | 0.168 ± 0.073
CCCGAGCAAUAUUACGGGCU | -3.98 ± 0.26 | -2.65 ± 0.21
AGACAGCAAUAUUACGCCCU | -0.687 ± 0.083 | 0.0722 ± 0.1
UCGGAGCAAUAUUACGUCAC | -3.68 ± 0.43 | -2.68 ± 0.36
UCCUAGCAAUAUUACGGCUC | – | -1.62 ± 0.44
GAUGAGCAAUAUUACGGCGG | -3.43 ± 0.3 | -1.88 ± 0.26
GGGUAGCAAUAUUACGGUAC | -2.04 ± 0.12 | -0.23 ± 0.15
CAGUAGCAAUAUUACGGCCG | -0.034 ± 0.13 | 0.348 ± 0.2
CGUAAGCAAUAUUACGUAUG | -2.17 ± 0.08 | -0.311 ± 0.072
CAGGAGCAAUAUUACGCCUU | -1.86 ± 0.24 | -1.99 ± 0.33
AUCCAGCAAUAUUACGCCAG | -0.923 ± 0.44 | -2.6 ± 0.48
AGCCAGCAAUAUUACGGGGG | -3.73 ± 0.24 | -1.99 ± 0.21
GAUGAGCAAUAUUACGCCAG | -3.63 ± 0.22 | -3.07 ± 0.4
ACUGAGCAAUAUUACGAAUU | -2.97 ± 0.29 | -2.1 ± 0.24
AGGAAGCAAUAUUACGAAUG | -4.53 ± 0.46 | -2.8 ± 0.28
CUGUAGCAAUAUUACGCAGC | -3.17 ± 0.41 | –
UGCAAGCAAUAUUACGUAGU | -3.83 ± 0.18 | -2.42 ± 0.17
GCUGAGCAAUAUUACGGGCA | -1.76 ± 0.39 | -2.69 ± 0.36
CGUUAGCAAUAUUACGGGCG | -3.04 ± 0.24 | -2.38 ± 0.3
CAUAAGCAAUAUUACGUCAA | -3.33 ± 0.27 | -2.61 ± 0.3
UCUGAGCAAUAUUACGUGAG | -1.86 ± 0.11 | -0.646 ± 0.097
AGUGAGCAAUAUUACGCGAU | -3.96 ± 0.42 | -1.8 ± 0.24
GUGAAGCAAUAUUACGGUAA | -0.519 ± 0.073 | -0.169 ± 0.1
CAUUAGCAAUAUUACGCGUA | -1.76 ± 0.22 | -1.2 ± 0.18

Sequence | self-splicing fitness (ln) (30 °C) | self-splicing fitness (ln) (37 °C)
AACCAGCAAUAUUACGUGUG | -1.05 ± 0.033 | -0.463 ± 0.048
UUGCAGCAAUAUUACGUCUC | -1.21 ± 0.12 | -0.311 ± 0.16
CGCGAGCAAUAUUACGCUAG | – | -1.39 ± 0.29
UUAUAGCAAUAUUACGAUCC | – | -2.87 ± 0.26
ACUAAGCAAUAUUACGCACA | -1.23 ± 0.11 | 0.0989 ± 0.1
CCUUAGCAAUAUUACGAACA | – | -0.92 ± 0.29
ACGCAGCAAUAUUACGACCA | -1.49 ± 0.12 | -0.691 ± 0.15
GUUCAGCAAUAUUACGUGUG | -0.881 ± 0.066 | -0.806 ± 0.084
GGGCAGCAAUAUUACGUACC | -1.88 ± 0.31 | -1.39 ± 0.48
AGUGAGCAAUAUUACGGCCC | -1.16 ± 0.39 | –
AUAUAGCAAUAUUACGAACG | -1.56 ± 0.18 | -0.154 ± 0.2
AAUGAGCAAUAUUACGGCCU | -1.17 ± 0.17 | -1.47 ± 0.21
ACCGAGCAAUAUUACGUAAA | -4.22 ± 0.29 | -1.66 ± 0.19
GAAGAGCAAUAUUACGCAAG | -3.6 ± 0.39 | -2.68 ± 0.36
UUAGAGCAAUAUUACGAAAG | -2.9 ± 0.4 | -0.494 ± 0.35
GACUAGCAAUAUUACGUACA | -1.02 ± 0.14 | -0.0348 ± 0.15
AUUAAGCAAUAUUACGCAUC | -3.36 ± 0.31 | -1.24 ± 0.25
UGUCAGCAAUAUUACGGACG | -2.2 ± 0.15 | -1.34 ± 0.18
UAAGAGCAAUAUUACGGGAA | -2.21 ± 0.3 | -1.77 ± 0.24
UCUCAGCAAUAUUACGCAGC | -3.54 ± 0.24 | -2.32 ± 0.21
GUAAAGCAAUAUUACGGGGU | -3.02 ± 0.19 | -2.25 ± 0.21
AAAUAGCAAUAUUACGUGUC | -3.4 ± 0.19 | -3.29 ± 0.25
GGCUAGCAAUAUUACGCCUG | -3.72 ± 0.29 | -1.95 ± 0.23
UACUAGCAAUAUUACGGGCC | -3.27 ± 0.17 | -3.17 ± 0.23
UCUGAGCAAUAUUACGCAUU | -3.77 ± 0.37 | -2.15 ± 0.31
UCCGAGCAAUAUUACGAACA | -3.11 ± 0.47 | –
AUGCAGCAAUAUUACGCCUG | -2.61 ± 0.35 | –

Sequence | self-splicing fitness (ln) (30 °C) | self-splicing fitness (ln) (37 °C)
AACGAGCAAUAUUACGUUUU | -3.9 ± 0.14 | -2.79 ± 0.14
AUAGAGCAAUAUUACGUAGG | -2.32 ± 0.18 | -2.65 ± 0.38
UUGCAGCAAUAUUACGCAUC | -3.11 ± 0.22 | -3.18 ± 0.33
UCUGAGCAAUAUUACGUUGU | -4.12 ± 0.21 | -1.96 ± 0.18
AAUGAGCAAUAUUACGAUGC | -2.44 ± 0.21 | –
ACGCAGCAAUAUUACGCGAA | -2.4 ± 0.15 | -1.2 ± 0.13
UUCAAGCAAUAUUACGGAGA | -1.55 ± 0.18 | -1.32 ± 0.19
GUUAAGCAAUAUUACGUCAG | – | -2.22 ± 0.4
GUGAAGCAAUAUUACGUGUG | -0.934 ± 0.089 | -0.737 ± 0.11
AUUUAGCAAUAUUACGCCAU | -0.966 ± 0.27 | 0.446 ± 0.24
AGUUAGCAAUAUUACGCGAC | -2.88 ± 0.45 | -0.848 ± 0.26
UCUGAGCAAUAUUACGAAUA | – | -1.82 ± 0.48
UGCCAGCAAUAUUACGGUUC | -3.35 ± 0.2 | -1.81 ± 0.14
GGGGAGCAAUAUUACGUACA | -1.75 ± 0.2 | -1.76 ± 0.49
ACUUAGCAAUAUUACGCUUA | -1.26 ± 0.15 | -1.75 ± 0.21
CACGAGCAAUAUUACGCACU | -2.87 ± 0.39 | -1.61 ± 0.23
GUAAAGCAAUAUUACGCCCU | 0.35 ± 0.081 | 0.185 ± 0.081
GCGAAGCAAUAUUACGCGCC | – | -1.73 ± 0.4
AAGUAGCAAUAUUACGUUCU | -0.514 ± 0.062 | -0.45 ± 0.09
GACAAGCAAUAUUACGAUGA | -0.527 ± 0.078 | -0.303 ± 0.085
AGUAAGCAAUAUUACGAACU | -2.43 ± 0.19 | -0.813 ± 0.15
CCGUAGCAAUAUUACGUGGG | -4.15 ± 0.2 | -3.05 ± 0.17
AGAAAGCAAUAUUACGGCAU | -0.587 ± 0.051 | -0.525 ± 0.064
GGCCAGCAAUAUUACGUUAC | -2.01 ± 0.12 | -0.532 ± 0.15
AAGUAGCAAUAUUACGUGCC | -0.879 ± 0.087 | -0.766 ± 0.1
